Reference: patent US20160264649A1

Legend:
Assay in all cases: cell-based or functional assay
[1] = biological target: HIV-1 MGRM-AE-005 Env (HIV-1)
[2] = biological target: HIV-1 MGRM-F1-017 Env (HIV-1)
[3] = biological target: HIV-1 MGRM-AE-002 Env (HIV-1)
[4] = biological target: HIV-1 MGRM-F1-018 Env (HIV-1)
[5] = biological target: HIV-1 MGRM-C-006 Env on pseudovirus (HIV-1)
[6] = biological target: HIV-1 LAVI_C22 Env on pseudovirus (HIV-1)
HIV-1 JRCSF Env (HIV-1) = HIV-1 JRCSF Env (HIV-1) (UniProt P20871)
[7] = biological target: HIV-1 CAAN.A2 (Acute) Env on pseudovirus (HIV-1)
[8] = biological target: HIV-1 92UG001 Env (HIV-1)
[9] = biological target: HIV-1 MGRM-Chronic-B-023 Env on pseudovirus (HIV-1)
[10] = biological target: HIV-1 92UG024 Env (HIV-1)
[11] = biological target: HIV-1 MGRM-D-008 Env (HIV-1)
[12] = biological target: HIV-1 APV_13 Env on pseudovirus (HIV-1)
[13] = biological target: aMLV envelope (negative control pseudovirus)
[14] = biological target: HIV-1 MGRM-C-015 Env on pseudovirus (HIV-1)
[15] = biological target: HIV-1 MGRM-F1-023 Env (HIV-1)
[16] = biological target: HIV-1 MGRM-D-028 Env (HIV-1)
HIV-1 APV-13 Env (HIV-1) = biological target: HIV-1 APV-13 Env (HIV-1)
[17] = biological target: HIV-1 MGRM-D-019 Env (HIV-1)
[18] = biological target: HIV-1 MGRM-C-009 Env on pseudovirus (HIV-1)
[19] = biological target: HIV-1 93IN905 Env (HIV-1)
[20] = biological target: HIV-1 MGRM-G-001 Env (HIV-1)
[21] = biological target: HIV-1 MGRM-D-002 Env (HIV-1)
[22] = biological target: HIV-1 MGRM-D-012 Env (HIV-1)
[23] = biological target: HIV-1 MGRM-Chronic-B-017 Env on pseudovirus (HIV-1)
[24] = biological target: HIV-1 MGRM-AE-006 Env (HIV-1)
[25] = biological target: HIV-1 MGRM-C-010 Env on pseudovirus (HIV-1)
[26] = biological target: HIV-1 92BR020 Env (HIV-1)
[27] = biological target: HIV-1 MGRM-C-007 Env on pseudovirus (HIV-1)
[28] = biological target: HIV-1 94UG114 Env (HIV-1)
[29] = biological target: HIV-1 APV_6 Env on pseudovirus (HIV-1)
[30] = biological target: HIV-1 MGRM-AE-003 Env (HIV-1)
[31] = biological target: HIV-1 MGRM-G-006 Env (HIV-1)
[32] = biological target: HIV-1 MGRM-G-027 Env (HIV-1)
HIV-1 APV-6 Env (HIV-1) = biological target: HIV-1 APV-6 Env (HIV-1)
HIV-1 APV-17 Env (HIV-1) = biological target: HIV-1 APV-17 Env (HIV-1)
[33] = biological target: HIV-1 MGRM-Chronic-B-011 Env on pseudovirus (HIV-1)
[34] = biological target: HIV-1 97ZA012 Env on pseudovirus (HIV-1)
[35] = biological target: HIV-1 MGRM-C-019 Env on pseudovirus (HIV-1)
[36] = biological target: HIV-1 MGRM-G-028 Env (HIV-1)
[37] = biological target: HIV-1 MGRM-G-017 Env (HIV-1)
[38] = biological target: HIV-1 MGRM-G-015 Env (HIV-1)
[39] = biological target: HIV-1 92UG046 Env (HIV-1)
[40] = biological target: HIV-1 MGRM-Chronic-B-018 Env on pseudovirus (HIV-1)
[41] = biological target: HIV-1 MGRM-C-008 Env on pseudovirus (HIV-1)
[42] = biological target: HIV-1 MGRM-G-013 Env (HIV-1)
[43] = biological target: HIV-1 MGRM-Chronic-B-004 Env on pseudovirus (HIV-1)
[44] = biological target: HIV-1 MGRM-A-004 Env (HIV-1)
[45] = biological target: HIV-1 MGRM-A-001 Env (HIV-1)
[46] = biological target: HIV-1 93UG077 Env (HIV-1)
[47] = biological target: HIV-1 92RW009 Env (HIV-1)
[48] = biological target: HIV-1 MGRM-A-008 Env (HIV-1)

1443_C16 (PG16) (TCN-116) (antibody), sequence (VH): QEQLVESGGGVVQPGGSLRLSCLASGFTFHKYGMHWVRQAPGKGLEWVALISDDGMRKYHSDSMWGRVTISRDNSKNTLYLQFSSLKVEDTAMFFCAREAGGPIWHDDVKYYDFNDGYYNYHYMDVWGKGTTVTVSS
1443_C16 (PG16) (TCN-116) (antibody), sequence (VL): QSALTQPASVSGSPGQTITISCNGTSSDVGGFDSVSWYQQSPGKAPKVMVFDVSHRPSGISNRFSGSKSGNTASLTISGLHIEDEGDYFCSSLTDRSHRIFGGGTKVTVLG

Substance: 1443_C16 (PG16) (TCN-116) (antibody)
- IC50 (µg/ml), pseudovirus neutralization [1]: 0.02 µg/mL
- IC50 (pseudovirus neutralization) [2]: > 50 µg/mL
- IC50 (µg/ml), pseudovirus neutralization [3]: 0.01 µg/mL
- IC50 (pseudovirus neutralization) [4]: 0.01 µg/mL
- IC50 [5]: 2.62 µg/mL
- IC50 [6]: 0.02 µg/mL
- neutralization IC50 (HIV-1 JRCSF Env (HIV-1)): < 0.0025 µg/mL
- neutralization IC90 (HIV-1 JRCSF Env (HIV-1)): 0.013 µg/mL
- IC50 [7]: 8.83 µg/mL
- IC50 (µg/ml), pseudovirus neutralization [8]: > 50 µg/mL
- IC50 [9]: 0.13 µg/mL
- IC50 (µg/ml), pseudovirus neutralization [10]: 24 µg/mL
- neutralization IC50 [10]: > 50 µg/mL
- neutralization IC90 [10]: > 50 µg/mL
- IC50 (µg/ml), pseudovirus neutralization [11]: > 50 µg/mL
- IC50 [12]: > 50 µg/mL
- IC50 (pseudovirus neutralization) [13]: > 50 µg/mL
- IC50 [14]: 0.26 µg/mL
- IC50 (pseudovirus neutralization) [15]: > 50 µg/mL
- IC50 (µg/ml), pseudovirus neutralization [16]: > 50 µg/mL
- neutralization IC50 (HIV-1 APV-13 Env (HIV-1)): > 50 µg/mL
- neutralization IC90 (HIV-1 APV-13 Env (HIV-1)): > 50 µg/mL
- IC50 (µg/ml), pseudovirus neutralization [17]: 0.01 µg/mL
- IC50 [18]: > 50 µg/mL
- neutralization IC50 [19]: 0.102 µg/mL
- neutralization IC90 [19]: > 50 µg/mL
- IC50 (µg/ml), pseudovirus neutralization [20]: 0.15 µg/mL
- IC50 (µg/ml), pseudovirus neutralization [21]: 0.01 µg/mL
- IC50 (µg/ml), pseudovirus neutralization [22]: 0.35 µg/mL
- IC50 [23]: 0.02 µg/mL
- IC50 (µg/ml), pseudovirus neutralization [24]: 0.03 µg/mL
- IC50 [25]: > 50 µg/mL
- neutralization IC50 [26]: > 50 µg/mL
- neutralization IC90 [26]: > 50 µg/mL
- IC50 [27]: 0.05 µg/mL
- IC50 (µg/ml), pseudovirus neutralization [28]: > 50 µg/mL
- IC50 [29]: 0.29 µg/mL
- IC50 (µg/ml), pseudovirus neutralization [30]: 0.03 µg/mL
- IC50 (µg/ml), pseudovirus neutralization [31]: 2.42 µg/mL
- IC50 (µg/ml), pseudovirus neutralization [32]: 0.01 µg/mL
- neutralization IC50 (HIV-1 APV-6 Env (HIV-1)): 0.08 µg/mL
- neutralization IC90 (HIV-1 APV-6 Env (HIV-1)): 44.3 µg/mL
- neutralization IC50 (HIV-1 APV-17 Env (HIV-1)): > 50 µg/mL
- neutralization IC90 (HIV-1 APV-17 Env (HIV-1)): > 50 µg/mL
- IC50 [33]: > 50 µg/mL
- IC50 [34]: 2.55 µg/mL
- IC50 [35]: 0.002 µg/mL
- IC50 (µg/ml), pseudovirus neutralization [36]: 3.09 µg/mL
- IC50 (µg/ml), pseudovirus neutralization [37]: 0.02 µg/mL
- IC50 (µg/ml), pseudovirus neutralization [38]: 5.33 µg/mL
- IC50 (µg/ml), pseudovirus neutralization [39]: 1.42 µg/mL
- IC50 [40]: 0.7 µg/mL
- IC50 [41]: > 50 µg/mL
- IC50 (µg/ml), pseudovirus neutralization [42]: > 50 µg/mL
- IC50 [43]: 0.01 µg/mL
- neutralization IC50 [44]: 0.04 µg/mL
- neutralization IC50 [45]: > 50 µg/mL
- neutralization IC50 [46]: > 50 µg/mL
- neutralization IC50 [47]: 0.11 µg/mL
- neutralization IC50 [48]: > 50 µg/mL
